Laboratory results: EP4768039A1, “PHARMACEUTICAL COMPOSITION AND USE THEREOF” (Shanghai Regenelead Therapies Co., Ltd., priority 2023, dated 2025)

How the values were obtained:
[1] = Temperature sensitivity of pH of different buffers; type: physicochemical; conditions: buffer working solutions, 2 °C to 30 °C; FIG. 17
Protocol: • 1. About 3 mL of each of different buffers was added to a centrifuge tube. The pH value in the process of cooling from 30 °C to about 2 °C was measured with a pH meter in an ice-water bath and recorded, and then the pH change in the process of heating the solution from 2 °C to 30 °C was recorded. Table 30. Buffering ranges of different buffers

[2] = pH range of the buffer system; cited from earlier work
[3] = biological target: Human VEGF-A protein (human) (UniProt P15692); experiment: cell-based or functional assay
Chain of UniProt P15692 (P15692 other isoform, or with tags, fused parts or gaps limits assumed): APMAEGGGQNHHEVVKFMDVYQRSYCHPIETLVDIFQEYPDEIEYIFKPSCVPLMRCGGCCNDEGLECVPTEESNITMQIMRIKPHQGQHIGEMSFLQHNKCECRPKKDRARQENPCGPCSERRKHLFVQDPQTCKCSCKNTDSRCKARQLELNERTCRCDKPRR

pH decrease as the temperature increased by 1 °C [1]	VEGF-A IC50 (nM); VEGF-A-induced NFAT-RE Luc2P KDR reporter cells [3] [nM]	Molecule	Buffering range [2]
about 0.024		OCC(CO)(CO)NCCCNC(CO)(CO)CO [BTP, bis-tris propane]	6.3-9.5
about 0.001		O=S(=O)(O)CCN1CCN(CCO)CC1 [HEPES, N-2-hydroxyethylpiperazine-N'-2-ethanesulfonic acid]	6.8-8.2
about 0.024		NC(CO)(CO)CO [Tris]	7.0-9.2
	2.71	PR1010(R1D2-R2D3-linker-R2D2-R2D3-Fc) (from UniProt P01857 104-330) (Fc fusion)	
	0.34	PR1094(R1D2-R2D3-linker-R2D2(C162V)-R2D3-Fc) (from UniProt P01857 104-330) (Fc fusion)	
	0.18	PR1109(R1D2-R2D3-linker-R2D2(V219I)-R2D3-Fc) (from UniProt P01857 104-330) (Fc fusion)	
	0.36	PR1114(R1D2-R2D3-linker-R2D2-R2D3(N274I)-Fc) (from UniProt P01857 104-330) (Fc fusion)	
	0.28	PR1115(R1D2-R2D3-linker-R2D2-R2D3(R275L)-Fc) (from UniProt P01857 104-330) (Fc fusion)	
	0.22	PR1118(R1D2-R2D3-linker-R2D2-R2D3(D276Q)-Fc) (from UniProt P01857 104-330) (Fc fusion)	
	0.14	PR1119(R1D2-R2D3-linker-R2D2-R2D3(L277R)-Fc) (from UniProt P01857 104-330) (Fc fusion)	
	0.38	PR1120(R1D2-R2D3-linker-R2D2-R2D3(K278D)-Fc) (from UniProt P01857 104-330) (Fc fusion)	
	0.36	PR1122(R1D2-R2D3-linker-R2D2-R2D3(K278E)-Fc) (from UniProt P01857 104-330) (Fc fusion)	
	0.21	PR1123(R1D2-R2D3-linker-R2D2-R2D3(Q280E)-Fc) (from UniProt P01857 104-330) (Fc fusion)	
	0.29	PR1124(R1D2-R2D3-linker-R2D2-R2D3(S283T)-Fc) (from UniProt P01857 104-330) (Fc fusion)	
	0.23	PR1125(R1D2-R2D3-linker-R2D2-R2D3(E284H)-Fc) (from UniProt P01857 104-330) (Fc fusion)	
	0.7	PR1126(R1D2-R2D3-linker-R2D2-R2D3(F288Y)-Fc) (from UniProt P01857 104-330) (Fc fusion)	
	0.67	PR1129(R1D2-R2D3-linker-R2D2-R2D3(M314S)-Fc) (from UniProt P01857 104-330) (Fc fusion)	
	0.14	PR1136(R1D2-R2D3-linker-R2D2-R2D3(L313R)-Fc) (from UniProt P01857 104-330) (Fc fusion)	

pH decrease as the temperature increased by 1 °C [1]	VEGF-A IC50 (nM); VEGF-A-induced NFAT-RE Luc2P KDR reporter cells [3] [nM]	Molecule	Buffering range [2]
	1.14	PR1141(R1D2-R2D3-linker-R2D2(C162V)-R2D3(N274F)-Fc) (from UniProt P01857 104-330) (Fc fusion)	
	0.99	PR1142(R1D2-R2D3-linker-R2D2(C162V)-R2D3(N274I)-Fc) (from UniProt P01857 104-330) (Fc fusion)	
	0.84	PR1143(R1D2-R2D3-linker-R2D2(C162V)-R2D3(R275L)-Fc) (from UniProt P01857 104-330) (Fc fusion)	
	0.98	PR1146(R1D2-R2D3-linker-R2D2(C162V)-R2D3(L289Y)-Fc) (from UniProt P01857 104-330) (Fc fusion)	
	1.16	PR1147(R1D2-R2D3-linker-R2D2(C162V)-R2D3(L313Y)-Fc) (from UniProt P01857 104-330) (Fc fusion)	
	1.49	PR1148(R1D2-R2D3-linker-R2D2(C162V)-R2D3(L277R/L289Y)-Fc) (from UniProt P01857 104-330) (Fc fusion)	
	0.82	PR1149(R1D2-R2D3-linker-R2D2(C162V/Y221S/R222K)-R2D3-Fc) (from UniProt P01857 104-330) (Fc fusion)	
	0.81	PR1150(R1D2-R2D3-linker-R2D2(C162V)-R2D3(L313R)-Fc) (from UniProt P01857 104-330) (Fc fusion)	
	0.92	PR1165(R1D2-R2D3-linker-R2D2(C162I)-R2D3-Fc) (from UniProt P01857 104-330) (Fc fusion)	
	1.12	PR1166(R1D2-R2D3-linker-R2D2(C162L)-R2D3-Fc) (from UniProt P01857 104-330) (Fc fusion)	
	1.1	PR1167(R1D2-R2D3-R2D2(C162V)-R2D3(N274F/S283T)-Fc) (Fc fusion)	
	1.15	PR1168(R1D2-R2D3-R2D2(C162V/Y221S/R222K)-R2D3(N274F)-Fc) (Fc fusion)	
	0.9	PR1169(R1D2-R2D3-R2D2(C162V/Y221S/R222K)-R2D3(S283T)-Fc) (Fc fusion)	
	0.89	PR1170(R1D2-R2D3-R2D2(C162V/Y221S/R222K)-R2D3(N274F/S283T)-Fc) (Fc fusion)	
	1.09	PR1171(R1D2-R2D3-linker-R2D2(C162V)-R2D3(N274F/S283T)-Fc) (from UniProt P01857 104-330) (Fc fusion)	
	0.92	PR1172(R1D2-R2D3-linker-R2D2(C162V/Y221S/R222K)-R2D3(N274F)-Fc) (from UniProt P01857 104-330) (Fc fusion)	
	1.08	PR1173(R1D2-R2D3-linker-R2D2(C162V/Y221S/R222K)-R2D3(S283T)-Fc) (from UniProt P01857 104-330) (Fc fusion)	
